For assay [1], the target named is T1, OP-1 pro domain, truncated form (human, UniProt P18075 48-292).
T1 construct: also called truncated form of the pro region (beginning at residue 48); 48-292 truncated form
The assay is described as follows: reverse phase C18 HPLC separation of the purified soluble complex into pro domain and mature species, then N-terminal sequencing. The source says: The complex components can be verified by running the complex-containing fraction from the S-200 or S-200HR columns over a reverse phase C18 HPLC column and eluting in an acetonitrile gradient (in 0.1% TFA), using standard procedures. The complex is dissociated by this step, and the pro domain and mature species elute as separate species. These separate species then can be subjected to N-terminal sequencing using standard procedures (see, for example, Guide to Protein Purification, M. Deutscher, ed., Academic Press, San Diego, 1990, particularly pp. 602-613), and the identity of the isolated 36 kD, 39 kDa proteins confirmed as mature morphogenic protein and isolated, cleaved pro domain, respectively.

Assay [2] addresses T2, OP-1 pro domain, intact form (human, UniProt P18075 30-292).
T2 construct: Cleaved pro domain of 39 kDa; also called pro region; full length pro region (residues 30-292)
Put plainly: gel filtration (Sephacryl S-200HR in TBS) of soluble OP-1 complex purified from CHO conditioned media without denaturants; complex elutes at an apparent 110 kDa. The protocol: The 50 mM imidazole eluate containing the soluble OP-1 complex was diluted with nine volumes of 20 mM NaPO₄ (pH 7.0) and applied to an S-Sepharose (Pharmacia) column equilibrated in 20 mM NaPO₄ (pH 7.0) with 50 mM NaCl. The S-Sepharose resin was loaded with an equivalent of 800 mL of starting conditioned media per mL of resin. After loading the S-Sepharose column was washed with equilibration buffer and eluted with 100 mM NaCl followed by 300 mM and 500 mM NaCl in 20 mM NaPO₄ (pH 7.0). The 300 mM NaCl pool was further purified using gel filtration chromatography. Fifty mls of the 300 mm NaCl eluate was applied to a 5.0×90 cm Sephacryl S-200HR (Pharmacia) equilibrated in Tris buffered saline (TBS), 50 mM Tris, 150 mM NaCl (pH 7.4). […] The apparent molecular of the soluble OP-1 was determined by comparison to protein molecular weight standards (alcohol dehydrogenase (ADH, 150 kDa), bovine serum albumin (BSA, 68 kDa), carbonic anhydrase (CA, 30 kDa) and cytochrome C (cyt C, 12.5 kDa) (see FIG. 3). The purity of the S-200 column fractions was determined by separation on standard 15% polyacrylamide SDS gels stained with coomassie blue. The identity of the mature OP-1 and the pro-domain was determined by N-terminal sequence analysis after separation of the mature OP-1 from the pro-domain using standard reverse phase C18 HPLC.
Background: Size exclusion chromatography separates by hydrodynamic size, large species first.

T1 sequence (P18075 48-292): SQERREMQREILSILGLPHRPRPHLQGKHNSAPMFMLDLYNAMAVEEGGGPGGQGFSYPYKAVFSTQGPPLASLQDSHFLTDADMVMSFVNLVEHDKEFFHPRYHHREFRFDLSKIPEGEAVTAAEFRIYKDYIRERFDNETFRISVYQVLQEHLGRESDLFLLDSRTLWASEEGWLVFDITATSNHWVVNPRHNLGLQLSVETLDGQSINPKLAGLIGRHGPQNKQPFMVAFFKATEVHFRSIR
T2 sequence (P18075 30-292): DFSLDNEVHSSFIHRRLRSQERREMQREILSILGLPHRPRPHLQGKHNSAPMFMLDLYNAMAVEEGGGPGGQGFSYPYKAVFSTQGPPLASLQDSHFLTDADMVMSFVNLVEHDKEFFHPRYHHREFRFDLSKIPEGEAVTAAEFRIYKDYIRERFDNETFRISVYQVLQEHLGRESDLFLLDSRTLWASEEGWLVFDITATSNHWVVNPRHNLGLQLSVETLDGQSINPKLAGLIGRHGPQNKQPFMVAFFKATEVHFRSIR

B1: mature OP-1 dimer (ligand)
chain: STGSKQRSQNRSKTPKNQEALRMANVAENSSSDQRQACKKHELYVSFRDLGWQDWIIAPEGYAAYYCEGECAFPLNSYMNATNHAIVQTLVHFINPETVPKPCCAPTQLNAISVLYFDDSSNVILKKYRNMVVRACGCH
notes: Expressed in CHO cells and purified as part of the soluble OP-1 complex; The dimer runs at 35-36 kDa; also called BMP-7; osteogenic protein-1
In the case of B1, the binding result in assay [1] and in assay [2] was “binds” in each case.
